Assay results taken from patent publication US20050186197A1.
Positions of bridges follow the written chain, without caps; N, C: chain ends. No end group written: not given here.

Columns and labels:
TEM-1 β-lactamase = TEM-1 β-lactamase (UniProt P62593); assay: β-lactamase inhibition assay (cephalosporin C)
[1] = target: class C β-lactamase P99 from Enterobacter cloacae (Enterobacter cloacae) (UniProt P05364); assay: β-lactamase inhibition assay (cephalosporin C)
[2] = target: T1, TEM-1 β-lactamase, P62593; assay: ratio of Ki values, β-lactamase inhibition assay
T1 chain: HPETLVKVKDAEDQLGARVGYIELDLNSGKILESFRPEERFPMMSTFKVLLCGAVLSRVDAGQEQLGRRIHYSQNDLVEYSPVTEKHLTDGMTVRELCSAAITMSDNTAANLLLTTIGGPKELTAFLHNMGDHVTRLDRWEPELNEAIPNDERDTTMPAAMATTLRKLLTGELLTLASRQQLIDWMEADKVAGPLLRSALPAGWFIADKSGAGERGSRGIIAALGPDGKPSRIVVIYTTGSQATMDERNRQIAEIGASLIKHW

[3] = target: T2, class C β-lactamase P99 from Enterobacter cloacae (Enterobacter cloacae), P05364; assay: ratio of Ki values, β-lactamase inhibition assay
[4] = target: T1, TEM-1 β-lactamase, P62593; assay: β-lactamase inhibition assay (cephalosporin C), Ki from IC50 by Cheng-Prusoff
[5] = target: T2, class C β-lactamase P99 from …; assay: as above
[6] = target: T1, TEM-1 β-lactamase, P62593; assay: β-lactamase inhibition assay, disulfide-bonded peptide

T2 sequence (P05364 21-381 limits assumed): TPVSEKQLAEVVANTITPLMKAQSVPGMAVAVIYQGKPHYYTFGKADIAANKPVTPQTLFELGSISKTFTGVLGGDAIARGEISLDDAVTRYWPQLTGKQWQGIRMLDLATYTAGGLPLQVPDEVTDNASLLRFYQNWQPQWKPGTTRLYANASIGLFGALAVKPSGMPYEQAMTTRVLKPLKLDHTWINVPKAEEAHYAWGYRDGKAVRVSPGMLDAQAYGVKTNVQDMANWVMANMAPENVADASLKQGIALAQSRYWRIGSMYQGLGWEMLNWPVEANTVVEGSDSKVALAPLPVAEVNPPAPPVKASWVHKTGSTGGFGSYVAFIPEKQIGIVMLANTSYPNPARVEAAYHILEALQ

For RR-NH2 (peptide), the Ki (TEM-1 β-lactamase) was > 2000 µM and the Ki [1] was > 2000 µM.

Work on AAGHYY-NH2 [AAGHYY-NH2] yielded a fold increase in Ki relative to RRGHYY-NH2 [2] of 3 fold, a fold increase in Ki relative to RRGHYY-NH2 [3] of 3 fold and a Ki [4] of 438 µM. For the same molecule, the Ki [5] was 468 µM.

Molecule HSAYSDTRRGDYG-NH2 […-NH2] has a fold increase in binding affinity relative to the cysteine peptide …-NH2 [2] of 10 fold, a Ki [4] of 298 µM and a Ki [5] of 254 µM.

RRGHYY-NH2 [RRGHYY-NH2] showed a fold improvement in affinity relative to disulfide bonded …-NH2 [2] of 25 fold, a fold improvement in affinity relative to …-NH2 [2] of 2 fold and a Ki [4] of 136 µM. It also gave a Ki [5] of 140 µM.

In the case of HSACSDTRRGDCG-NH2 (disulfide 4-12 (inferred)) […-NH2 (disulfide-bonded soluble peptide)], the Ki [6] is reported as 3500 µM.
